PMC4609988 (Scientific Reports, 2015)
Positions count from the first letter of the chain named. Values belong to the binder of their own block, whether it stands above or below them.

Tests used:
[1] = target: the molecule itself; assay: non-reducing SDS-PAGE; proteins taken from the media of transfected HEK293 cells with streptactin sepharose, SDS-PAGE under non-reduced (NR) and reduced (R) conditions, immunoblot with anti-Ang1 antibody; disulfide-linked oligomers
[2] = target: GCN-Ang1 ( | human); assay: as above; conditions: both partners purified
[3] = target: T1, Fc-Ang1 (human); assay: as above; conditions: both partners purified
T1 chain: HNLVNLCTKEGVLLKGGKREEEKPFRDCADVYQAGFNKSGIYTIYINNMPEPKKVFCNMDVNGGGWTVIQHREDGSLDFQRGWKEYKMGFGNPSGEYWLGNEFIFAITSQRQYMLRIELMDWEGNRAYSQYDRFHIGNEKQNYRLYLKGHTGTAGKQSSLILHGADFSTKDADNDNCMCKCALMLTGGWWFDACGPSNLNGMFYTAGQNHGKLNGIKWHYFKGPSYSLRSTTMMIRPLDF

[4] = target: T2, COMP-Ang1 ( | human); assay: as above; conditions: both partners purified
T2 chain: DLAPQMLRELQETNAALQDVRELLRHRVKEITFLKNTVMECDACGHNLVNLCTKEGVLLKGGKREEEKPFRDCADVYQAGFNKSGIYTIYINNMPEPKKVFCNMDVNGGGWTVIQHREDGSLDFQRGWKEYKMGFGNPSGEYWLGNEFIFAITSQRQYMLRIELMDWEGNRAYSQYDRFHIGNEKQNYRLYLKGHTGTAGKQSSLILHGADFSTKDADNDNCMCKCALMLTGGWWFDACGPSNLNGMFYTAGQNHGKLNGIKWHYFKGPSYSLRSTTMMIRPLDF

[5] = target: T3, CMP-Ang1-2 (human); assay: negative-stain transmission electron microscopy; purified proteins on carbon-coated copper grids, stained with 0.75% uranyl formate, 120 kV; conditions: both partners purified
T3 chain: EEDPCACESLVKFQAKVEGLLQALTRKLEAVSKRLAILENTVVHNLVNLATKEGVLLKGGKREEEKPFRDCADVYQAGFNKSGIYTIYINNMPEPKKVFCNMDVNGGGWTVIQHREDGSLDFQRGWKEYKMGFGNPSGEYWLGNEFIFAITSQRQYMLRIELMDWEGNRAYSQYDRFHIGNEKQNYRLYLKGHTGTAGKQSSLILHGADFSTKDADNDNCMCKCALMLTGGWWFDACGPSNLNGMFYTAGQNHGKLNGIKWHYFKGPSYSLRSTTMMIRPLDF

B1: CMP-Ang1-3 (dimeric CMP-Ang1), produced in HEK293 cells (ligand)
chain: T3 chain with C5A
modifications: N-glycan at asparagine 106 (complex tri- (~57%) or tetra- (~25%) antennary type glycans with one or two fucose residues)
stoichiometry N [1]: 2

B5: CMP-Ang1-2 (ligand)
chain: T3 chain
modifications: inter-chain disulfides; N-glycan at Ang1 Asn295 (construct Asn106) / inter-chain disulfides; N-glycan at Ang1 Asn295 (construct Asn106)
stoichiometry N [5]: 3

The remaining lines, values ahead:

stoichiometry N [2]: 2
B2: GCN-Ang1 (ligand)
chain: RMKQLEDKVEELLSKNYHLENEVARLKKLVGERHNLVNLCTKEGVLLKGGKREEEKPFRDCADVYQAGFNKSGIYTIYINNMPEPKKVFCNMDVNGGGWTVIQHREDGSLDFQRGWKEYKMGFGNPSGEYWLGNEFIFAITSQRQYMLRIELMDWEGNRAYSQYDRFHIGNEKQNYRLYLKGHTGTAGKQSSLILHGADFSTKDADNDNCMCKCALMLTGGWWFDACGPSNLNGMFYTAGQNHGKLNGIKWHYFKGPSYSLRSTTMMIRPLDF
modifications: N-glycan at Ang1 Asn295 / N-glycan at Ang1 Asn295

stoichiometry N [3]: 2
B3: Fc-Ang1 (Fc fusion)
chain: T1 chain
modifications: dimerized through N-terminal human IgG1 Fc; N-glycan at Ang1 Asn295 / dimerized through N-terminal human IgG1 Fc; N-glycan at Ang1 Asn295

stoichiometry N [4]: 5
B4: COMP-Ang1 (ligand)
chain: T2 chain
modifications: inter-chain disulfides; N-glycan at Ang1 Asn295 (construct Asn109) / inter-chain disulfides; N-glycan at Ang1 Asn295 (construct Asn109)
